For assay [1], the target named is T1, human Nectin-4 protein (human, UniProt Q96NY8 32-349).
T1 construct: Purified protein used for coating in ELISA and as analyte in Octet; also called human Nectin-4 antigen
T1 sequence (looked up): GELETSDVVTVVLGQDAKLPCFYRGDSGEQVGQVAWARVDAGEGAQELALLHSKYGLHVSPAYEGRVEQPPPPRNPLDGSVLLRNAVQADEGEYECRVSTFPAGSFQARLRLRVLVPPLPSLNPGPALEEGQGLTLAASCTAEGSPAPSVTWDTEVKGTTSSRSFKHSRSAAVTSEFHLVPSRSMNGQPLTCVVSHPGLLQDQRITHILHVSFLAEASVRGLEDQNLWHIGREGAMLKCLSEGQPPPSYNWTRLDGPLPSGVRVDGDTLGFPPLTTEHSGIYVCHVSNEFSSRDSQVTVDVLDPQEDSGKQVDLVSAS
In words: ELISA, coated human Nectin-4. The method, then: Human Nectin-4 (Sino Biological, Cat: 19771-H08H) was diluted to 1 μg/mL with carbonate (CBS) buffer, added to a 96-well plate at a volume of 100 μL/well, and placed at 4° C. for 16-20 h. The CBS buffer in the 96-well plate was discarded by pipetting, the plate was washed once with PBST (pH 7.4, PBS containing 0.05% Tween 20) buffer, added with 200 μL/well of skim milk powder (blocking solution) containing 2% PBST, incubated for 1 h at room temperature for blocking. The blocking solution was removed, and the plate was washed three times with PBST buffer. The anti-Nectin-4 mouse antibody to be tested was diluted with PBST/2% skim milk powder to an appropriate concentration, then added to the plate at a volume of 100 μL/well, and incubated at room temperature for 1.5 h. The reaction system was removed, and the plate was washed three times with PBST, and 50 μL/well of HRP-labeled goat anti-mouse IgG secondary antibody (purchased from the Jackson Laboratory) diluted with PBST/1% skim milk powder (dilution ratio 1:5000) was added, and incubated at room temperature for 1 h. After the plate was washed 3 times with PBST, 100 μL/well of TMB was added, and incubated at room temperature for 5-10 min for color development. The color development was stopped by adding 50 μL/well of 0.2 M sulfuric acid. Microplate reader was used to detect optical density (O.D.) at dual wavelengths 450/620 nm.
(An ELISA detects its analyte on a solid surface through an enzyme-linked reagent.)

Assay [2] concerns the target T1, human Nectin-4 protein. In words: ELISA, coated antigen. The source says:
(§1) The affinity of anti-human Nectin-4 humanized monoclonal antibodies to Nectin-4 protein of different species was detected by ELISA.

For assay [3], the target named is T2, cynomolgus monkey Nectin-4 protein (cynomolgus monkey).
T2 construct: also called cynomolgus monkey Nectin-4 antigen
The experiment in a line: ELISA, coated antigen.
Source text: as §1

Assay [4] concerns the target T3, human Nectin-4 on cell membrane surface (human, UniProt Q96NY8 32-510).
T3 construct: whole, on cells; also called A549-Nectin-4; T24-Nectin-4
T3 sequence (looked up): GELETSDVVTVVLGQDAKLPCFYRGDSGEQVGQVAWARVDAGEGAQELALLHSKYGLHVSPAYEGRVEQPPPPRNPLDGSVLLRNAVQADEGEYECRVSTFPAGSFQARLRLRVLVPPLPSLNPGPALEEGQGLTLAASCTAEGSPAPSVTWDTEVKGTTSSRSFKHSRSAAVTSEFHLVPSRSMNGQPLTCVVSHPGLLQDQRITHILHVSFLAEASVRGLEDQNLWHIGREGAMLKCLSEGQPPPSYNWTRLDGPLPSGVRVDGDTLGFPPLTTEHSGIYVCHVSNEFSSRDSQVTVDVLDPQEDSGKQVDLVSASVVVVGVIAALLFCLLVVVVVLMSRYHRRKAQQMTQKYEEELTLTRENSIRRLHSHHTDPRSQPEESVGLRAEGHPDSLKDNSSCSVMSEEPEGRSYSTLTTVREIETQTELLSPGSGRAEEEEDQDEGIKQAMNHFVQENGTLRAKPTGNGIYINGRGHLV
The experiment in a line: flow cytometry on T47D cells. The method, then: The specific steps were as follows: T47D cells were digested, resuspended by centrifugation, and washed twice with PBS; the cells were resuspended in PBS (containing 1% BSA), and spread into a 96-well tip-bottom plate at 3×10⁵ cells/well, with a volume of 50 μl per well; 50 μL of the antibody to be tested was added to each well, starting at a final concentration of […], 4-fold gradient dilution, a total of 10 concentration points; Human IgG was used as a negative control; after being mixed well, the resulting mixture was reacted in the dark at 4° C. for 1 hour; washing was performed 3 times with PBS, FITC-labeled anti-human Fc secondary antibody (brand: BioLegend, product number: 409322) was added, incubated at 4° C. for 0.5 hours in the dark; washing was performed 3 times with PBS, and detection was carried out using a flow cytometer (flow cytometer brand: Beckman, model: Cytoflex).
(In general: In flow cytometry, cells or beads pass a laser one at a time.)

For assay [5], the target named is T3, human Nectin-4 on cell membrane surface. In words: flow cytometry on NCI-N87 cells.
Assay [6] concerns the target T1, human Nectin-4 protein. The experiment in a line: ELISA, coated human Nectin-4, anti-human-HRP.
The target of assay [7] is T1, human Nectin-4 protein. The experiment in a line: ELISA, coated human Nectin-4, anti-human-HRP. This is another data set of the same source.
Assay [8] concerns the target T1, human Nectin-4 protein. The experiment in a line: ELISA, coated human Nectin-4, anti-human-HRP. The source holds these as a separate data set.
Assay [9] concerns the target T2, cynomolgus monkey Nectin-4 protein. The experiment in a line: ELISA, coated cynomolgus monkey Nectin-4, anti-human-HRP.
Assay [10] shares this target. The description is as above. This is another data set of the same source.
Assay [11] deals with T1, human Nectin-4 protein. The experiment in a line: competitive ELISA, coated Nectin-4; competitor biotin-labeled Nectin-1-hFc. The method, then: Human Nectin-4 is linked to another Nectin-4 molecule or Nectin-1 molecule through the IgV domain. Because 31HZ, 56HZ and 74HZ all bind to the IgV domain of Nectin-4, the competitive activity of the three antibodies was detected by competitive ELISA. The specific steps were as follows: Nectin-4 protein was diluted to 2 μg/mL with CBS coating solution, 100 μL per well, and incubated at 37° C. for 2 hours; washing was performed once with 300 μL PBST, PBS (2% BSA) was then added, 100 μL per well, and incubation was performed at 37° C. for 2 hours; biotin-labeled Nectin-1-hFc was diluted with PBS (2% BSA) to 20 μg/mL; the antibody to be detected was diluted with PBS (2% BSA), wherein the dilution of 31HZ and 74HZ was started from 3.73 μg/mL, 3-fold dilution, and 9 concentration points, the dilution of 56HZ was started from 1.25 μg/mL, 2-fold dilution, and 10 concentration points; the above two diluted solutions were mixed well in equal volumes, and then added to the corresponding well at 100 μL/well, and incubation was performed at room temperature for 2 hours; washing was performed three times with 300 μL PBST; HRP-streptavidin was diluted with PBS (2% BSA) at a ratio of […], and added to the corresponding well at 100 μL/well, incubation was performed at room temperature for 1 hour; washing was performed five times with 300 μL of PBST; 100 μL of TMB was added to the corresponding well, color development was performed at room temperature for 10 minutes, and then terminated by adding 50 μL of 2N H₂SO₄, and a microplate reader was used for collecting readings at 450 nm.

Assay [12] deals with T1, human Nectin-4 protein. The experiment in a line: BLI (Octet Fortebio), antibody on ProA sensor, Nectin-4 as analyte, 1:1 global fit. Here is the method: (§2) The dynamic affinity of anti-human Nectin-4 humanized monoclonal antibodies was detected using Octet Fortebio®. The main steps comprised: firstly, the anti-human Nectin-4 humanized monoclonal antibody (concentration of 5 μg/mL) was immobilized on ProA sensor, then subjected to binding reaction with human or cynomolgus monkey Nectin-4 (gradiently diluted to 400 nM, 200 nM, 100 nM, 50 nM, 25 nM, 12.5 nM, 6.25 nM, 0 nM), and the anchored product in the solid phase obtained through fully reaction was subjected to dissociation reaction in PBST buffer. After the completion of the experiment, the results were analyzed by using Data Analysis 11.0 software at 1:1 mode to perform global fitting, thereby obtaining the affinity constant of antibody to antigen.
(Biolayer interferometry detects binding as a change in optical thickness at a sensor tip.)

Assay [13] deals with T2, cynomolgus monkey Nectin-4 protein. Described as above. Here is the method:
as §2

Substitutions are numbered along the chain they refer to. Read-outs that look alike come from different tables or passages of the source.

B1: anti-human Nectin-4 murine monoclonal antibody 56# (antibody, V domains shown)
VH: QVQLKESGPGLVKPSQSLSLTCTVTGYSITSDYDWHWIRHFPGNMLEWMGYISFSGRTYYNPSLKSRISITHDTSKNHFFLRLNSVTTEDTATYYCARGNYDGFDYWGQGTTLTVSS
VL: DIQLTQSPAILSVSPGERVSFSCRASQNIGTSIHWYQHRTNGSPRLLIKFASESISGIPSRFSGSGSGTDFTLSINSVESEDIADYYCQQSKSWPTYTFGGGTKLEIK
notes: Murine antibody purified by Protein A from hybridoma supernatant
The EC50 is the concentration at which the effect is half-maximal. Molecule B1 showed an EC50 with human Nectin-4 protein [1] of 0.0363 nM.

B2: anti-human Nectin-4 murine monoclonal antibody 31# (antibody, V domains shown)
VH: EVQLQQPGADLVRPGASVKLSCKASGYTFTDYWMNWVKLRPGQGLEWIGMIHPSDSETRLNQKFKDKATLTVDKSSSTAYMQLSSPTSEDSAVYYCARWDFRIYYAMDYWGQGTSVTVSS
VL: DVVITQSPSSLAMSVGQKVTMSCKSSQSLLNTNSQKNYLAWYQQKPGQSPKLLVYFASTRESGVPDRFIGSGSGTDFTLTITSVQAEDLADYFCQQHYSTPLTFGAGTKLEIK
notes: as for B1
As for B2, it took 0.0549 nM to reach a half-maximal effect with human Nectin-4 protein [1] (EC50).

B3: anti-human Nectin-4 murine monoclonal antibody 74# (antibody, V domains shown)
VH: EVQLQQPGAELVRPGASVKLSCKASGYTFINYWMNWVKQRPGQGLEWIGMIHPSDSATRLNQKFKDKATLTVDKSSSTAYMQLSSPTSEDSAVYYCARWGNFYTVNAWYYFDYWGHGTTLTVSS
VL: B2 VL with V2I, S28T, T32S, S34T, V54F, D76N, T82S
notes: as for B1
In the assay with human Nectin-4 protein [1], B3 displayed an EC50 of 0.0694 nM.

B4: Enfortumab (antibody, V domains shown)
VH: EVQLVESGGGLVQPGGSLRLSCAASGFTFSSYNMNWVRQAPGKGLEWVSYISSSSSTIYYADSVKGRFTISRDNAKNSLSLQMNSLRDEDTAVYYCARAYYYGMDVWGQGTTVTVSS
VL: DIQMTQSPSSVSASVGDRVTITCRASQGISGWLAWYQQKPGKAPKFLIYAASTLQSGVPSRFSGSGSGTDFTLTISSLQPEDFATYYCQQANSFPPTFGGGTKVEIKR
The term EC50 (read off the curve) denotes the concentration giving half of the maximal effect. One may read the IC50 as the concentration that inhibits the measured activity by half. Broadly, the Kd is the equilibrium constant for the complex coming apart. In the case of B4, the EC50 in the assay with human Nectin-4 protein [2] was 7.1 ng/mL; in assay [3] it was 6 ng/mL; in assay [4] it was 0.0101 µg/mL; in assay [5] it was 0.0221 µg/mL. The “EC50 (read off the curve)” value is ~5 ng/mL with human Nectin-4 protein [6]; ~9 ng/mL with human Nectin-4 protein [7]; ~7 ng/mL with human Nectin-4 protein [8]; ~6 ng/mL in assay [9]; ~7 ng/mL in assay [10]. This molecule returned an IC50 in the assay with human Nectin-4 protein [11] of 0.0271 µg/mL. Further, the Kd with human Nectin-4 protein [12] came to 28.3 nM; in [13], 33.6 nM.

The values are drawn from US20240228612A1 (SICHUAN KELUN BIOTECH BIOPHARMACEUTICAL, published 2024).
